Biological target: SARS-CoV-2 spike protein, extracellular domain (1-1213), recombinant from HEK293 cells (SARS-CoV-2) (UniProt P0DTC2)

Work on “HZI 2-09 (Anlec in TBS; lectin batch isolated from bromelain)” yielded a Kd of 8.25 µM, a koff of 0.003 s⁻¹ and a kon of 331 M⁻¹ s⁻¹.

— US20240216484A1
